# Measured values reported in patent US20180346602A1.
# Assays:
# [1] = molecular target: anti-P-Selectin antibody (IgG4 subclass with mutations S228P/L235E) [IgG part: P01861]; test: sandwich ELISA assay A; capture M1.7.10-Bi; antibody 4 at 25 ng/mL
# [2] = molecular target: anti-P-Selectin antibody (IgG4 subclass with mutations S228P/L235E) (human) [IgG part: P01861]; test: sandwich ELISA assay C; capture on SA plate; tracer FcγRI-Dig; analyte 0 ng/mL (blank)
# [3] = molecular target: anti-VEGF/ANG2 antibody (IgG1 subclass with mutations P329G/L234A/L235A) (human) [IgG part: P01857]; test: as above
# [4] = molecular target: anti-IGF-1R antibody (IgG1 subclass with mutations I253A/H310A/H435A) (human) [IgG part: P01857]; test: as above
# [5] = molecular target: anti-VEGF/ANG2 antibody (IgG1 subclass with mutations P329G/L234A/L235A/I253A/H310A/H435A) (human) [IgG part: P01857]; test: as above
# [6] = molecular target: anti-VEGF/ANG2 antibody (wild-type IgG1 subclass) [IgG part: P01857]; test: sandwich ELISA assay A; capture M1.7.10-Bi; antibody 5 at 2 ng/mL
# [7] = molecular target: anti-P-Selectin antibody (IgG4 subclass with mutations S228P/L235E) (human) [IgG part: P01861]; test: sandwich ELISA assay C; capture on SA plate; tracer FcγRI-Dig; analyte 6 ng/mL
# [8] = molecular target: anti-VEGF/ANG2 antibody (IgG1 subclass with mutations P329G/L234A/L235A) (human) [IgG part: P01857]; test: as above
# [9] = molecular target: anti-IGF-1R antibody (IgG1 subclass with mutations I253A/H310A/H435A) (human) [IgG part: P01857]; test: as above
# [10] = molecular target: anti-VEGF/ANG2 antibody (IgG1 subclass with mutations P329G/L234A/L235A/I253A/H310A/H435A) (human) [IgG part: P01857]; test: as above
# [11] = molecular target: anti-VEGF/ANG2 antibody (IgG1 subclass with mutations P329G/L234A/L235A) [IgG part: P01857]; test: sandwich ELISA assay A; capture M1.7.10-Bi; antibody 2 at 50 ng/mL
# [12] = molecular target: anti-P-Selectin antibody (IgG4 subclass with mutations S228P/L235E) [IgG part: P01861]; test: sandwich ELISA assay A; capture M1.7.10-Bi; antibody 4 at 0 ng/mL (blank)
# [13] = molecular target: anti-VEGF/ANG2 antibody (wild-type IgG1 subclass) [IgG part: P01857]; test: sandwich ELISA assay A; capture M1.7.10-Bi; antibody 5 at 50 ng/mL
# [14] = molecular target: anti-P-Selectin antibody (IgG4 subclass with mutations S228P/L235E) (human) [IgG part: P01861]; test: sandwich ELISA assay C; capture on SA plate; tracer FcγRI-Dig; analyte 100 ng/mL
# [15] = molecular target: anti-VEGF/ANG2 antibody (IgG1 subclass with mutations P329G/L234A/L235A) (human) [IgG part: P01857]; test: as above
# [16] = molecular target: anti-IGF-1R antibody (IgG1 subclass with mutations I253A/H310A/H435A) (human) [IgG part: P01857]; test: as above
# [17] = molecular target: anti-VEGF/ANG2 antibody (IgG1 subclass with mutations P329G/L234A/L235A/I253A/H310A/H435A) (human) [IgG part: P01857]; test: as above
# [18] = molecular target: anti-P-Selectin antibody (IgG4 subclass with mutations S228P/L235E) (human) [IgG part: P01861]; test: sandwich ELISA assay B; capture on SA plate; tracer M1.7.10-Dig; analyte 0 ng/mL (blank)
# [19] = molecular target: anti-VEGF/ANG2 antibody (IgG1 subclass with mutations P329G/L234A/L235A) (human) [IgG part: P01857]; test: as above
# [20] = molecular target: anti-IGF-1R antibody (IgG1 subclass with mutations I253A/H310A/H435A) (human) [IgG part: P01857]; test: as above
# [21] = molecular target: anti-VEGF/ANG2 antibody (IgG1 subclass with mutations P329G/L234A/L235A/I253A/H310A/H435A) (human) [IgG part: P01857]; test: as above
# [22] = molecular target: anti-VEGF/ANG2 antibody (IgG1 subclass with mutations P329G/L234A/L235A) [IgG part: P01857]; test: sandwich ELISA assay A; capture M1.7.10-Bi; antibody 2 at 6 ng/mL
# [23] = molecular target: anti-VEGF/ANG2 antibody (IgG1 subclass with mutations P329G/L234A/L235A/I253A/H310A/H435A) [IgG part: P01857]; test: sandwich ELISA assay A; capture M1.7.10-Bi; antibody 1 at 25 ng/mL
# [24] = molecular target: anti-VEGF/ANG2 antibody (IgG1 subclass with mutations P329G/L234A/L235A) [IgG part: P01857]; test: sandwich ELISA assay A; capture M1.7.10-Bi; antibody 2 at 13 ng/mL
# [25] = molecular target: anti-VEGF/ANG2 antibody (IgG1 subclass with mutations P329G/L234A/L235A) [IgG part: P01857]; test: sandwich ELISA assay A; capture M1.7.10-Bi; antibody 2 at 3 ng/mL
Binder,signal [OD405 nm] [1],signal [OD405 nm] [2],signal [OD405 nm] [3],signal [OD405 nm] [4],signal [OD405 nm] [5],signal [OD405 nm] [6],signal [OD405 nm] [7],signal [OD405 nm] [8],signal [OD405 nm] [9],signal [OD405 nm] [10],signal [OD405 nm] [11],signal [OD405 nm] [12],signal [OD405 nm] [13],signal [OD405 nm] [14],signal [OD405 nm] [15],signal [OD405 nm] [16],signal [OD405 nm] [17],signal [OD405 nm] [18],signal [OD405 nm] [19],signal [OD405 nm] [20],also measured
"anti-AAA variant Fc-region antibody M1.6.22 (antibody, V domains shown) VH: EVQLVESGGDLVKPGGSLKLSCAASGFTFSSYGMSWVRQTPDKRLEWVATISSGGSYIYYPDSVKGRFTISRDNAKNTLYLQMSSLKSEDTAMYYCARLGMITTGYAMDYWGQGTSVTVSS VL: DVLMTQTPLSLPVSLGDQASISCRSSQTIVHSTGHTYLEWFLQKPGQSPKLLIYKVSNRFSGVPDRFSGSGSGTDFTLKISRVEAEDLGVYYCFQGSHVPYTFGGGTKLEIK",0.057 OD405 nm,0.077 OD405 nm,0.064 OD405 nm,0.069 OD405 nm,0.077 OD405 nm,0.047 OD405 nm,0.051 OD405 nm,0.06 OD405 nm,0.104 OD405 nm,0.06 OD405 nm,0.065 OD405 nm,0.043 OD405 nm,0.045 OD405 nm,0.069 OD405 nm,0.076 OD405 nm,2.1 OD405 nm,0.079 OD405 nm,0.038 OD405 nm,0.038 OD405 nm,0.037 OD405 nm,signal [OD405 nm] [21]: 0.047 OD405 nm; signal [OD405 nm] [22]: 0.044 OD405 nm; signal [OD405 nm] [23]: 0.061 OD405 nm; signal [OD405 nm] [24]: 0.051 OD405 nm; signal [OD405 nm] [25]: 0.039 OD405 nm
"anti-variant (human) Fc-region antibody M1.3.17 (antibody, V domains shown) VH: EVKLLESGGGLVQPGGSLKLSCAASGIDFRRYWMNWVRQAPGKGLEWIGEIDPDSSTINYTPSLKDKFIISRDNAKNTMYLQMRKVRSEDTALYYCARPYDYGAWFAYWGQGTLVTVSA VL: QAVVTQESALTTSPGETVTLTCRSTTGAVTTSNYANWVQEKPDHLFTGLIGGTNKRAPGVPARFSGSLIGDKAALTITGAQTEDEAIYFCALWYSDHWVFGGGTKLTVL",0.037 OD405 nm,1.19 OD405 nm,1.23 OD405 nm,1.22 OD405 nm,1.18 OD405 nm,0.034 OD405 nm,1.18 OD405 nm,1.22 OD405 nm,1.21 OD405 nm,1.17 OD405 nm,2.96 OD405 nm,0.036 OD405 nm,0.041 OD405 nm,1.17 OD405 nm,1.22 OD405 nm,1.2 OD405 nm,1.19 OD405 nm,0.049 OD405 nm,0.038 OD405 nm,0.045 OD405 nm,signal [OD405 nm] [21]: 0.035 OD405 nm; signal [OD405 nm] [22]: 1.99 OD405 nm; signal [OD405 nm] [23]: 0.04 OD405 nm; signal [OD405 nm] [24]: 2.7 OD405 nm; signal [OD405 nm] [25]: 1.22 OD405 nm
"anti-variant (human) Fc-region antibody M1.7.24 (antibody, V domains shown) VH: EVKLLESGGGLVQPGGSLKLSCAASGFDFSRYWMNWVRQAPGKGLEWIGEITPDSSTINYTPSLKDKFIISRDNAKNTLYLQMIKVRSEDTALYYCVRPYDYGAWFASWGQGTLVTVSA VL: QAVVTQESALTTSPGETVTLTCRSSTGAVTTSNYANWVQEKPDHLFTGLIGGTNKRAPGVPARFSGSLIGDKAALTITGAQTEDEAIYFCALWYSNHWVFGGGTKLTVL",0.048 OD405 nm,0.076 OD405 nm,0.092 OD405 nm,0.086 OD405 nm,0.076 OD405 nm,0.038 OD405 nm,0.053 OD405 nm,0.06 OD405 nm,0.069 OD405 nm,0.079 OD405 nm,2.6 OD405 nm,0.045 OD405 nm,0.048 OD405 nm,0.08 OD405 nm,0.082 OD405 nm,0.11 OD405 nm,0.05 OD405 nm,0.035 OD405 nm,0.046 OD405 nm,0.04 OD405 nm,signal [OD405 nm] [21]: 0.049 OD405 nm; signal [OD405 nm] [22]: 2.24 OD405 nm; signal [OD405 nm] [23]: 0.047 OD405 nm; signal [OD405 nm] [24]: 2.52 OD405 nm; signal [OD405 nm] [25]: 1.73 OD405 nm
